From patent US20250258178A1 (SHIONOGI, published 2025) come the findings set out here.

The target in one assay is T1, Peptide #6 (human).
T1 construct: 15-mer of human HRG printed on a PEPperCHIP peptide microarray
T1 peptide: GPPLPQGPPPLLPMS
Kind of assay: peptide microarray, fluorescent anti-mouse IgG. On the procedure:
(§1) An overlapping peptide scanning method was performed to find out specific antibody-binding peptide epitopes. The amino acid sequence of the HRG protein was obtained in NCBI protein database. PEPperPrint (registered trademark) (Heidelberg, Germany) was commissioned to prepare PEPperCHIP peptide microarrays designed from HRG protein sequences. Each peptide consisted of an overlapping peptide library having 15 amino acid residues overlapping 14 amino acid residues and was extended at the N- and C-terminus with a neutral GSGSGSG linker to ensure that the peptides were separated from each other. […] After treatment of 21 types of anti-HRG monoclonal antibodies, it stained with an anti-mouse IgG polyclonal secondary antibody followed by reading fluorescence intensity on a scanner to quantify protein-antibody binding.
(§2) Each microarray was processed as follows. Before incubation with a sample, a standard buffer was applied on slides followed by treating with a blocking buffer. The microarray was treated with a fluorescently-labeled anti-mouse IgG secondary antibody followed by the measurement of background fluorescence intensity caused by non-specific interactions using a scanner.
(§3) The microarray was incubated with the 21 types of anti-HRG monoclonal antibodies. The microarray was stained with a fluorescently labeled anti-mouse IgG secondary antibody. The fluorescence intensity at each position was measured by a scanner.

The target in a further assay is T2, Peptide #5 (human).
T2 construct: 15-mer of human HRG printed on a PEPperCHIP peptide microarray
T2 peptide: HGPPLPQGPPPLLPM
Description: peptide microarray, fluorescent anti-mouse IgG. Here is the method:
as §1, §2, §3

In a further assay the target is T3, Peptide #3 (human).
T3 construct: 15-mer of human HRG printed on a PEPperCHIP peptide microarray
T3 peptide: HSHGPPLPQGPPPLL
Description: peptide microarray, fluorescent anti-mouse IgG. Here is the method:
as §1, §2, §3

The next assay addresses T4, Peptide #4 (human).
T4 construct: 15-mer of human HRG printed on a PEPperCHIP peptide microarray
T4 peptide: SHGPPLPQGPPPLLP
Kind of assay: peptide microarray, fluorescent anti-mouse IgG. On the procedure:
as §1, §2, §3

The target in the next assay is T5, Peptide #7 (human).
T5 construct: 15-mer of human HRG printed on a PEPperCHIP peptide microarray
T5 peptide: PPLPQGPPPLLPMSC
Description: peptide microarray, fluorescent anti-mouse IgG. On the procedure: as §1, §2, §3

The target of assay [1] is T6, human histidine-rich glycoprotein (HRG), purified from human plasma (human, UniProt P04196 19-525).
T6 construct: also called human purified HRG; human purified HRG protein
T6 sequence: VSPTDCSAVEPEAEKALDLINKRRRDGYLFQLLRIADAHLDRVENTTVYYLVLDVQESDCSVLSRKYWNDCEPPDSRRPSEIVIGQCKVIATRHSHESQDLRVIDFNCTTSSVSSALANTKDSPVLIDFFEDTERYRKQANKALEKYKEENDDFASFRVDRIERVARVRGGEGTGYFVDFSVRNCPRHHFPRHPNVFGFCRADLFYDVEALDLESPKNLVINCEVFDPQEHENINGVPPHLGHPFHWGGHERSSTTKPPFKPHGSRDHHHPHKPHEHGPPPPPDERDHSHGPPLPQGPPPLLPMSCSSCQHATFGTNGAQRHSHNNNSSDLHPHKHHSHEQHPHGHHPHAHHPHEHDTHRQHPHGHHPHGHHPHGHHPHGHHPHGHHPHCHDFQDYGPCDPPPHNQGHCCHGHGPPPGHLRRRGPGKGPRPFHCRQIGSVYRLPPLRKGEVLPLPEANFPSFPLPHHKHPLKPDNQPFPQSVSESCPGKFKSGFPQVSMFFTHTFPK
Kind of assay: sandwich ELISA, HRG captured by solid phase 14-6F. Here is the method:
The capture antibody solution was dispensed at 25 μL per well into 384-well Maxisorp plates (NUNC), and the plates were incubated at room temperature for 3 hours. The plates were washed twice with 120 μL of washing solution per well (0.05% Tween 20-containing PBS). A blocking solution (1% BSA-containing PBS) was dispensed at 30 μL per well, and the plates were incubated at room temperature for 3 hours. The blocking solution was removed followed by dispensing the standard substance for evaluation at 20 μL per well (n=2), and the plates were incubated at room temperature for 3 hours. After washing the plates four times with the washing solution as described above, the solution of each detector antibody was dispensed at 10 μL per well, followed by dispensing a horseradish peroxidase-streptavidin solution (0.05 μg/mL) at 10 μL per well, and the plates were incubated at room temperature for 1 hour. After washing the plates four times with the washing solution as described above, a chromogenic substrate solution (TMB (3,3′,5,5′-tetramethylbenzidine)) was dispensed at 20 μL per well followed by incubating the plates at room temperature for 10 minutes, then a reaction stop solution 0.5 M H₂SO₄ was added at 20 μL/well, and the absorbance at 450 nm was measured.
The results regarding the evaluation of combinations chosen from 21 types of anti-HRG monoclonal antibodies are shown in Table 1. In Table 1, the absorbance at a wavelength of 450 nm of each combination was determined as follows: less than 1.0 OD: −, 1.0 OD or more and less than 2.0 OD: +, 2.0 OD or more and less than 3.0 OD: ++, and 3.0 OD or more: +++. The combinations of antibodies which could construct a sandwich ELISA system having enough level of absorbance change were 86 sets evaluated as ++ or +++ in Table 1.
(An ELISA detects its analyte on a solid surface through an enzyme-linked reagent.)

The next assay concerns the target T7, Peptide #14 (human).
T7 construct: 15-mer of human HRG on the peptide microarray; the printed position spans only 14 residues
T7 peptide: GHHPHGHHPHGHHPH
Description: peptide microarray, fluorescent anti-mouse IgG. Here is the method:
as §1, §2, §3

The target in a further assay is T8, Peptide #21 (human).
T8 construct: 15-mer of human HRG printed on a PEPperCHIP peptide microarray
T8 peptide: HPHGHHPHCHDFQDY
Description: peptide microarray, fluorescent anti-mouse IgG. On the procedure:
as §1, §2, §3

Another assay has as its target T9, Peptide #15 (human).
T9 construct: 15-mer of human HRG on the peptide microarray; the printed position spans only 14 residues
T9 peptide: HHPHGHHPHGHHPHC
Kind of assay: peptide microarray, fluorescent anti-mouse IgG. Here is the method: as §1, §2, §3

The target in another assay is T10, Peptide #20 (human).
T10 construct: 15-mer of human HRG printed on a PEPperCHIP peptide microarray
T10 peptide: HHPHGHHPHCHDFQD
Description: peptide microarray, fluorescent anti-mouse IgG. On the procedure: as §1, §2, §3

The target of a further assay is T11, Peptide #12 (human).
T11 construct: 15-mer of human HRG on the peptide microarray; the printed position spans only 14 residues
T11 peptide: PHGHHPHGHHPHGHH
Description: peptide microarray, fluorescent anti-mouse IgG. On the procedure:
as §1, §2, §3

The target of a further assay is T12, Peptide #19 (human).
T12 construct: 15-mer of human HRG printed on a PEPperCHIP peptide microarray
T12 peptide: GHHPHGHHPHCHDFQ
Kind of assay: peptide microarray, fluorescent anti-mouse IgG. Here is the method:
as §1, §2, §3

The target of the next assay is T13, Peptide #18 (human).
T13 construct: 15-mer of human HRG printed on a PEPperCHIP peptide microarray
T13 peptide: HGHHPHGHHPHCHDF
Kind of assay: peptide microarray, fluorescent anti-mouse IgG. Here is the method: as §1, §2, §3

In the next assay the target is T14, Peptide #11 (human).
T14 construct: 15-mer of human HRG on the peptide microarray; the printed position spans only 14 residues
T14 peptide: HPHGHHPHGHHPHGH
Kind of assay: peptide microarray, fluorescent anti-mouse IgG. Here is the method: as §1, §2, §3

For a further assay, the target named is T15, Peptide #25 (human).
T15 construct: 15-mer of human HRG printed on a PEPperCHIP peptide microarray
T15 peptide: HHPHCHDFQDYGPCD
Description: peptide microarray, fluorescent anti-mouse IgG. On the procedure:
as §1, §2, §3

For another assay, the target named is T16, Peptide #23 (human).
T16 construct: 15-mer of human HRG printed on a PEPperCHIP peptide microarray
T16 peptide: HGHHPHCHDFQDYGP
Description: peptide microarray, fluorescent anti-mouse IgG. Here is the method:
as §1, §2, §3

A further assay concerns the target T17, Peptide #17 (human).
T17 construct: 15-mer of human HRG printed on a PEPperCHIP peptide microarray
T17 peptide: PHGHHPHGHHPHCHD
Kind of assay: peptide microarray, fluorescent anti-mouse IgG. On the procedure: as §1, §2, §3

The target of a further assay is T18, Peptide #24 (human).
T18 construct: 15-mer of human HRG printed on a PEPperCHIP peptide microarray
T18 peptide: GHHPHCHDFQDYGPC
Description: peptide microarray, fluorescent anti-mouse IgG. On the procedure: as §1, §2, §3

For a further assay, the target named is T19, Peptide #13 (human).
T19 construct: 15-mer of human HRG on the peptide microarray; the printed position spans only 14 residues
T19 peptide: HGHHPHGHHPHGHHP
Kind of assay: peptide microarray, fluorescent anti-mouse IgG. Here is the method:
as §1, §2, §3

The target of another assay is T20, Peptide #22 (human).
T20 construct: 15-mer of human HRG printed on a PEPperCHIP peptide microarray
T20 peptide: PHGHHPHCHDFQDYG
Description: peptide microarray, fluorescent anti-mouse IgG. Here is the method: as §1, §2, §3

B1: anti-HRG monoclonal antibody 69-1A (antibody, V domains shown)
VH: EVKLEESGGGLVQPGGSMKLSCAASGFTFSDAWMDWVRQSPEKGLEWVAEIRSKANNHGTYYAESVKGRFTISRDDSKSSVYLRMNSLSAEDTGIYYCTRPFAYWGQGTLVTVSA
VL: DVVVTQTPLSLPVSLGDQASISCRSSQSLVHIDGNTYFHWYVQKPGQSPKLLIYKVSNRFSGVPDRFSGSGSGTDFTLKISRVEAEDLGVYFCSQSTHVPLTFGAGTKLELK
notes: Mouse hybridoma monoclonal; also called clone No. 69-1A
In the case of B1, the binding result in the assay with Peptide #6, with Peptide #5, with Peptide #3, in the assay with Peptide #4 and in the assay with Peptide #7 was “binds” each time. The “absorbance at 450 nm (OD450)” value in assay [1] was in the range of 1 to 2 od.

B2: anti-HRG monoclonal antibody 75-2D (antibody, V domains shown)
VH: QVQLQQSGAELMKPGASVKISCKATGYTFSSYWIEWVKQRPGHGLEWIGEILPGSGRTNYNEKFKGKATFTADTSSNTAYMQLSSLTSEDSAVYYCARYSYFYYFDYWGQGTTLTVSS
VL: DNVLTQSPAIMSASLGERVTMTCTASSSVSSSYLHWYQQKPGSSPKLWIYSTSNLASGVPARFSGSGSGTSYSLTISSMEAEDAATYYCHQYHRSPWTFGGGTKLEIK
notes: Mouse hybridoma monoclonal; also called clone No. 75-2D
B2: the binding result in the assay with Peptide #14, with Peptide #21, in the assay with Peptide #15, with Peptide #20, with Peptide #12 and with Peptide #19 was “binds” throughout. The binding result with Peptide #18, with Peptide #11, with Peptide #25, with Peptide #23, with Peptide #17 and with Peptide #24 was “binds” each time. In addition, the binding result with Peptide #13 and with Peptide #22 was “binds” throughout.
